Test results taken from IntAct's records for PubMed 10633111.

B1: Protein virB8 (Agrobacterium tumefaciens (strain C58 / ATCC 33970)), P17798 (parent)
chain: MKGSEYALLVARETLAEHYKEVEAFQTARAKSARRLSKVIAAVATIAVLGNVAQAFTIATMVPLIRLVPVYLWIRPDGTVDSEVSVSRLPATQEEAVVNASLWEYVRLRESYDADTAQYAYDLVSNFSAPMVRQNYQQFFNYPNPTSPQVILGKHGRLEVEHIASNDVTPGVQQIRYKRTLIVDGKMPMASTWTATVRYEKVTSLPGRLRLTNPGGLVVTSYQTSEDTVSNAGHSEP
partner: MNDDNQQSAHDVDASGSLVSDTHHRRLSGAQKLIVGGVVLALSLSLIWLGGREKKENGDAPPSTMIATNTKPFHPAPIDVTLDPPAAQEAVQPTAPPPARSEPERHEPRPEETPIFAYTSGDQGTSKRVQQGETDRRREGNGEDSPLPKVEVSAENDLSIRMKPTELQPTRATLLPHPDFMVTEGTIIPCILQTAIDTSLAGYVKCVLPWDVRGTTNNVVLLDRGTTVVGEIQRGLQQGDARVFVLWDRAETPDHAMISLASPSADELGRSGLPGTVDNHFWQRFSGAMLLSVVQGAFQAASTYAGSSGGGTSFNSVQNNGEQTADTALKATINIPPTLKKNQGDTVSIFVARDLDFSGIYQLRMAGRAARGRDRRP
B2: Protein virB8 (Agrobacterium tumefaciens (strain C58 / ATCC 33970)), P17798 (parent)
chain: B1 chain
partner: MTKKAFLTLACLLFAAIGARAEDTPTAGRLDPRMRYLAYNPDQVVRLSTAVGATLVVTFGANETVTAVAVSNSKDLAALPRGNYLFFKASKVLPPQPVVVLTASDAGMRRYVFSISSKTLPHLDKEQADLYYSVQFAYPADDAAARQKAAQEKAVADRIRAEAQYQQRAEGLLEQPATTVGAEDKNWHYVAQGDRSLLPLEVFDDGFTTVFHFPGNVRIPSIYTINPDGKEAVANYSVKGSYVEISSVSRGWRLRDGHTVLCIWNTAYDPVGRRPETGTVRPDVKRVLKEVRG

Variants of: B1
Details: with virba_agrfc virB10, P17800

Variant	effect of a mutation on the interaction
S87L	decreasing interaction

Variants of: B2
Details: with virb9_agrfc virB9, P17799

Variant	effect of a mutation on the interaction
S87L	disrupting interaction
